Assays:
human PD-1 monomer = human PD-1 monomer (human, UniProt Q15116 25-167, limits assumed); test: ELISA on PD-1 monomer (FIG. 1)
Source text: ET901 ScFv-Fc (mouse IgG1 Fc) served as the negative control.

[1] = biological target: T1, human PD-1 on human T cells (human, UniProt Q15116 25-288); test: flow cytometry, 1 µg/ml antibody, human T cells overexpressing human PD-1, goat anti-human Ig FITC
T1 construct: whole, on cells; In the functional rows it is the PD-1 of the transduced human peripheral blood T cells; also called PD-1 T cells; human T cells modified to overexpress human PD-1
Source text: Flow cytometry was used to detect bound antibody using a goat anti-human Ig FITC conjugated antibody. […] Data shown is representative of one experiment.

T1 sequence (Q15116 25-288): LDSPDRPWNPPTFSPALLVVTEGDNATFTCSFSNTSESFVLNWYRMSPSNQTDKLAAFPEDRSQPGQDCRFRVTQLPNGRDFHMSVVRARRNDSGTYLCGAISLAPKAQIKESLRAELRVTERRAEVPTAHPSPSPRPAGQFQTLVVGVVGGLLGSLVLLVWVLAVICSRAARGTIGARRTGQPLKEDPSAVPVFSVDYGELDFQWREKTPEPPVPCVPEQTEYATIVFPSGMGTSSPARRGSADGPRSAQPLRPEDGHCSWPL
human PD-1 monomer, sequence (Q15116 25-167 limits assumed): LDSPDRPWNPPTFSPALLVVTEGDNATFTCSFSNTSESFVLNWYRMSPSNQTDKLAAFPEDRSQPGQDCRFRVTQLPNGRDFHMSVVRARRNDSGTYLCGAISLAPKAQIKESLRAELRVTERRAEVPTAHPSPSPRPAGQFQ

B1: anti-PD-1 scFv-Fc clone 23 (scFv linked to murine Fc) (Fc fusion)
chain: QAVLTQPPSMSEAPRQRVTISCSGSSSNIGNNAVNWYQQLPGKAPKLLIYYNDLLSSGVSDRFSGSKSGTSASLAISGLQSEDEADYYCAAWDDSVNGYVFGTGTKVTVLGGSRGGGGSGGGGSGGGGSEVQLVQSGAEVKKPGDSVKVSCKASGYTFTRFGFSWVRQAPGQGLEWMGWISVNNGNTKYAQKYQGRVTMTTDTSTSTAYMELRSLRSDDTAVYYCARYMYGRRDSWGQGTLVTVSS
notes: also called PD1-23; not shown: murine Fc (mouse IgG1a) domain
- binding result (human PD-1 monomer): binds

B2: anti-PD-1 clone 23 monoclonal antibody (antibody, V domains shown)
VH: EVQLVQSGAEVKKPGDSVKVSCKASGYTFTRFGFSWVRQAPGQGLEWMGWISVNNGNTKYAQKYQGRVTMTTDTSTSTAYMELRSLRSDDTAVYYCARYMYGRRDSWGQGTLVTVSS
VL: QAVLTQPPSMSEAPRQRVTISCSGSSSNIGNNAVNWYQQLPGKAPKLLIYYNDLLSSGVSDRFSGSKSGTSASLAISGLQSEDEADYYCAAWDDSVNGYVFGTGTKVTVLG
notes: also called Clone 23 mAb; ET130-23
- percent of PD-1 human T cells bound [1]: 51%

B3: anti-PD-1 clone 26 monoclonal antibody (antibody, V domains shown)
VH: QVQLVESGGGLVQPGGSLRLSCAASGYTRNKFSSYAMSWVRQAPGKGLEWVSGISGSGGTTYYADSVKGRFTISRDNSKNTQYLQLDSLRAEDTAVYYCARWYSSYYDVWGQGTLVTVSS
VL: QSVLTQPPSVSVAPGKTARITCGGNNIGSKSVHWYQQKPGQAPVLVIYYDSDRPSGIPERFSGSNSGNTATLTISRVEAGDEADYYCQVWDNHSDVVFGGGTKLTVLG
notes: also called Clone 26 mAb; ET130-26
- percent of PD-1 human T cells bound [1]: 78%

B4: anti-PD-1 clone 27 monoclonal antibody (antibody, V domains shown)
VH: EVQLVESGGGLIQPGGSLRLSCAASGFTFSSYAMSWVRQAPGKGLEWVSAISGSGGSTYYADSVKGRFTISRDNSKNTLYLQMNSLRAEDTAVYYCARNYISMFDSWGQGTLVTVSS
VL: QSVLTQPPSVSVAPGKTARITCGGNNIGSKSVHWYQQRPGQAPVLVIYYDSDRPSGIPERFSGSNSGNTATLTISRVEAGDEADYYCQVWDSSSDYVFGIGTKVTVLG
notes: also called Clone 27 mAb; E27 mAb
- percent of PD-1 human T cells bound [1]: 67%

B5: anti-PD-1 scFv-Fc clone 26 (scFv linked to murine Fc) (Fc fusion)
chain: QSVLTQPPSVSVAPGKTARITCGGNNIGSKSVHWYQQKPGQAPVLVIYYDSDRPSGIPERFSGSNSGNTATLTISRVEAGDEADYYCQVWDNHSDVVFGGGTKLTVLGGGGGSGGGGSGGGGSQVQLVESGGGLVQPGGSLRLSCAASGYTRNKFSSYAMSWVRQAPGKGLEWVSGISGSGGTTYYADSVKGRFTISRDNSKNTQYLQLDSLRAEDTAVYYCARWYSSYYDVWGQGTLVTVSS
notes: also called PD1-26; not shown: murine Fc (mouse IgG1a) domain
- binding result (human PD-1 monomer): binds

B6: anti-PD-1 scFv-Fc clone 40 (scFv linked to murine Fc) (Fc fusion)
chain: QSVLTQPPSASGTPGQRVTISCSGSRSNIGENTVNWYQQLPGTAPKLLIYSNNQRPSGVPDRFSGSKSGTSASLAISGLHSDDEADYFCAAWDDRLNGYVFGTGTKVTVLGGGGGSGGGGSGGGGSQVQLVQSGPEVKKPGASVKVSCKASGYTFTNYGFTWVRQAPGQGLEWMGWIGAQKGDTEYAQKFQGRVTMTTDTSTSTVYLELRSLRSDDTAVYYCARSQGVPFDSWGQGTLVTVSS
notes: also called PD-1-40; not shown: murine Fc (mouse IgG1a) domain
- binding result (human PD-1 monomer): binds
